Experiments:
[1] = target: T1, human PD-1 expressed on cells (human, UniProt Q15116 25-288); assay: FMAT inhibition of human Fc tagged PD-L1 binding to CHO human PD-1 cells
T1 construct: also called CHO human PD-1 cells; Jurkat reporter cell line expressing human PD-1
Procedure: All reagents and serially diluted VH were prepared in FMAT assay buffer. […] Plates were incubated for 2 hours at room temperature then fluorescence measured in the FL2 (502 nm-537 nm) and FL5 (677-800 nm) channels on the Mirrorball plate reader (TTP) following excitation at 488 nm and 640 nm. Data was expressed as a % of the total binding control (i.e. % control) after subtraction of the background signal determined from the non-specific binding control wells.

[2] = target: T1, human PD-1 expressed on cells; assay: cell-based or functional assay
[3] = target: T1, human PD-1 expressed on cells; assay: flow cytometry (Intellicyte) on anti-CD3/anti-CD28 stimulated human CD4+ T cells; His-tagged VH detected with anti-HIS biotin and streptavidin AlexaFluor488
Procedure: (§1) FIG. 2. CD4+ T cells were stimulated with anti-CD3 and anti-CD28. Cells were stained with HIS tagged VH plus anti-HIS tag labelled with biotin and streptavidin AlexaFluor488. Cells were analysed using Intellicyte® cytometer.
(§2) Binding onto human activated T cells was measured by cytometry. PBMC or magnetically isolated T cells were isolated from leukocytes cones and cells were incubated in 96 well plates coated with anti-CD3 (OKT3) at 5 μg/ml. Anti-CD28 (CD28.2) was added at 1 μg/ml in RPMI media and foetal bovine serum. After 72-96 hours, cells were harvested and stained using standard flow cytometry methods. […] Fluorescently labelled anti-CD4 and anti-CD8 were included in PBMC cultures and a live/dead dye. Stained cells were analysed using the IQue cytometer (Intellicyte). EC50 were calculated from the titration curve of median fluorescence of Humabody, gating on CD4+ or CD8+ cells if using mixed cells.

[4] = target: T2, recombinant human LAG-3-Fc (human, UniProt P18627 23-450); assay: competition ELISA; LAG-3-Fc pre-incubated with VH, binding to coated LSECtin
T2 construct: also called human LAG-3 (R&D Systems cat no. 2319-L3); LAG3 antigen
T2 sequence: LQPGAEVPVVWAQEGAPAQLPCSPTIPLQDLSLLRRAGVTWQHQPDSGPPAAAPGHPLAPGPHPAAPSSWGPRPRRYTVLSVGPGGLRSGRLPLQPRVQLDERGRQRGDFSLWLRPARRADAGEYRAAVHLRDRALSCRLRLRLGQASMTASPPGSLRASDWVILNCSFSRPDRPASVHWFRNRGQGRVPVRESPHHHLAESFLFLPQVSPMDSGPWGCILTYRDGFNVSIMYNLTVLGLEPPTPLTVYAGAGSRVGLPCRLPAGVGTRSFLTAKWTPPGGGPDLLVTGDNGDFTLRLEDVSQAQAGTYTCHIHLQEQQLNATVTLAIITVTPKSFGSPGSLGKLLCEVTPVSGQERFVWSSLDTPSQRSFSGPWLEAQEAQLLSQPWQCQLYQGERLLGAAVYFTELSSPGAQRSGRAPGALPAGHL
Text: (§3) The plate was blocked with 3% Marvel skimmed milk powder in PBS. […] Wash steps were done 3 times with PBS 0.05% Tween. Colour was developed using TMB and 0.5M sulphuric acid solution.

[5] = target: T3, recombinant human PD-1 Fc chimera (human, UniProt Q15116 25-167); assay: HTRF binding; His-tagged construct with PD-1-Fc, anti-human-Fc cryptate and anti-His-D2
T3 construct: Bought Fc chimera; also called human PD-1 (R&D systems cat no. 1086-PD); PD1 antigen
Procedure: Binding to PD-1 was measured by HTRF (homogeneous time resolved fluorescence). Serially diluted HIS-tagged constructs were prepared in assay buffer containing PBS, 0.1% BSA and 0.4M Potassium Fluoride. […] Time-resolved fluorescent emission at 620 nm and 665 nm was measured following excitation at 337 nm on the BMG PHERAstar plate reader. The HTRF ratio were calculated ((665 nm emission/620 nm emission)*10000) and the data corrected for (non-specific binding) to give the specific binding signal. EC50 were calculated from the titration curve (table 8 below).

[6] = target: T4, LAG-3 and PD-1 on activated human T cells (human, UniProt P18627 23-525; Q15116 25-288); assay: flow cytometry (Intellicyte) on anti-CD3/anti-CD28 stimulated human CD4+ T cells; His-tagged VH detected with anti-HIS biotin and streptavidin AlexaFluor488
T4 construct: also called huCD4+ T cells; huCD8+ T cells
Procedure: as §1, §2

[7] = target: T2, recombinant human LAG-3-Fc; assay: HTRF binding; His-tagged construct with LAG-3-Fc, anti-human-Fc cryptate and anti-His-D2
[8] = target: T5, human LAG-3 expressed on cells (human, UniProt P18627 23-525); assay: cell-based or functional assay
T5 sequence: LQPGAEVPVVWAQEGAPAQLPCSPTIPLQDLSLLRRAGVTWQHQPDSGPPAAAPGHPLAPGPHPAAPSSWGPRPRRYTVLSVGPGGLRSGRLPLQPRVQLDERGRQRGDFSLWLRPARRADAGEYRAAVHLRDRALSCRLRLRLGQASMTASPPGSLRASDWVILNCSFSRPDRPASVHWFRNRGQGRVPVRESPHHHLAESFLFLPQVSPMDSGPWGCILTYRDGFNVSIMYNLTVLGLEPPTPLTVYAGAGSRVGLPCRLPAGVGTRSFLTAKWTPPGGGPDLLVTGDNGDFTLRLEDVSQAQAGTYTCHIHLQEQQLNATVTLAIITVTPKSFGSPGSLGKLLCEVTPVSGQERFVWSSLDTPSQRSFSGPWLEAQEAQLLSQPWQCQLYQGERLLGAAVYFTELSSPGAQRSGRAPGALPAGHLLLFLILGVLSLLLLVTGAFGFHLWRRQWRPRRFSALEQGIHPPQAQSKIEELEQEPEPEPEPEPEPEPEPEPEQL

[9] = target: T2, recombinant human LAG-3-Fc; assay: competition ELISA; LAG-3-Fc pre-incubated with VH, binding to coated Galectin-3
Text: as §3

[10] = target: T1, human PD-1 expressed on cells; assay: cell-based or functional assay; remark: listed apart in the source
[11] = target: T2, recombinant human LAG-3-Fc; assay: BLI (Octet); human LAG-3-Fc captured on protein G biosensors, 1:1 fit
Procedure: Binding kinetics for multi-valent and bispecific VH were also measured in real-time bio-layer interferometer based biosensor Octet (ForteBio). […] All the binding studies were performed in HBS-ET Octet kinetics buffer. Biosensors were washed in Octet kinetics buffer in between different steps. […] The contact time for each of the association steps was 150 seconds and the dissociation step was 400 seconds. […] To compare the constructs, kinetic association (kₐ) and dissociation (kd) rate constants were determined by processing and fitting the data to a 1:1 binding model using ForteBio Analysis software.

T1 sequence (Q15116 25-288 limits assumed): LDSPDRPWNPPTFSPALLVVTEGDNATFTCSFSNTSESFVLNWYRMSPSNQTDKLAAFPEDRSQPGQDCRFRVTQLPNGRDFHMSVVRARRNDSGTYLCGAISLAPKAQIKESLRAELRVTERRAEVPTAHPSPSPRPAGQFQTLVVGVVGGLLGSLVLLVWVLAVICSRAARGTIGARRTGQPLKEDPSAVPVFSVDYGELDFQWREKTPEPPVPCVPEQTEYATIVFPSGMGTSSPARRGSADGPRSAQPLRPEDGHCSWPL
T3 sequence (Q15116 25-167 limits assumed, change not shown): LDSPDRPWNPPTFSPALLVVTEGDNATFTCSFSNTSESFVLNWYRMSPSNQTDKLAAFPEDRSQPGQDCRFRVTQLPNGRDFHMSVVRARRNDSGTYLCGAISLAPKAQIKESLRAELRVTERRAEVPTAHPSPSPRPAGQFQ
T4 sequence (Q15116 25-288 limits assumed, one chain of several): as the sequence (Q15116 25-288 limits assumed) above

Binder | IC50 [1] | EC50 (M), NFAT-Luciferase Reporter Gene assay (PD-1:PD-L1) [2] | EC50 (read off the curve) [3] | IC50 [4] | EC50 [5] | EC50 (read off the curve) [6] | EC50 [7] | EC50 (M), NFAT-Luciferase Reporter Gene assay (LAG-3:MHCII) [8] | IC50 [9] | potency in the PD-1:PD-L1 NFAT-luciferase reporter assay, fold lower than monoclonal antibodies [10] | Kd [11] | koff [11] | kon [11]
VH 2.63 (VHH, Human VH single domain antibody against PD-1) VHH: EVQLVESGGGLVKPGGSLRLSCAASGFTFSDSSMTWMRQAPGKGLEWVSYISSGGGVKFYTDSVKGRFTISRDNAKNSLYLQMNSLRADDTAVYYCAREAPLRLGESPHDAFDISGQGTMVTVSS | 4.5 nM | 1.2e-08 M | ~2 nM |  |  |  |  |  |  |  |  |  | 
VH1.1-6GS-VH1.1-9GS-VH2.63-His6 (bispecific antibody, Single-chain fusion of two anti-LAG-3 VH 1.1 and one anti-PD-1 VH 2.63; The entry includes AAA-His6; also called 1.1-6GS-1.1-9GS-2.63) EVQLVESGGGVVRPGGSLRLSCSASGFTFDDYGMSWVRQAPGKGLEWVSGIHWNGGNSGYADSVKGRFTISRDNAKNSLYLQMNSLRAEDTALYYCARIPREDCSSASCYTDAIDFWGPGTMVTVSSGGGGSGGGGSGGGGSGGGGSGGGGSGGGGSEVQLVESGGGVVRPGGSLRLSCSASGFTFDDYGMSWVRQAPGKGLEWVSGIHWNGGNSGYADSVKGRFTISRDNAKNSLYLQMNSLRAEDTALYYCARIPREDCSSASCYTDAIDFWGPGTMVTVSSGGGGSGGGGSGGGGSGGGGSGGGGSGGGGSGGGGSGGGGSGGGGSEVQLVESGGGLVKPGGSLRLSCAASGFTFSDSSMTWMRQAPGKGLEWVSYISSGGGVKFYTDSVKGRFTISRDNAKNSLYLQMNSLRADDTAVYYCAREAPLRLGESPHDAFDISGQGTMVTVSSAAAHHHHHH |  | 3e-08 M |  | 54 nM | 0.6 nM | ~2 nM | 0.78 nM | 3.2e-09 M | 38 nM | > 30 fold | 0.397 nM | 0.000303 s⁻¹ | 762000 M⁻¹ s⁻¹

From patent US20210015937A1 (CRESCENDO BIOLOGICS, published 2021)
